The record followed here is patent publication US20180355050A1 (Ablynx, published 2018).

A word on the IC50: it is the concentration needed to halve the response being measured.

Assay [1] has as its target T1, human CD40L expressed on CHO cells (human, UniProt P29965 1-261).
T1 sequence: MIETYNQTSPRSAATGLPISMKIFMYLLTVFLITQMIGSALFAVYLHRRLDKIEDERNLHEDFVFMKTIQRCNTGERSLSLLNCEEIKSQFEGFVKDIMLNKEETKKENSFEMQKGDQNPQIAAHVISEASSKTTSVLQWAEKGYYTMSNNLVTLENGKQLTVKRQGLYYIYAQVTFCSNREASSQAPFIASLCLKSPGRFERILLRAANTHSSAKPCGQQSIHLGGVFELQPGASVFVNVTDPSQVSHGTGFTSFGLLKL
Briefly: cell-based or functional assay.

In assay [2] the target is T1, human CD40L expressed on CHO cells. The assay is described as follows: cell-based or functional assay. The source holds these as a separate data set.
The target is the same in assay [3]. Briefly: cell-based or functional assay. The source holds these as a separate data set.
Assay [4] has as its target T2, rat CD40L on transiently transfected HEK cells (rat, UniProt Q9Z2V2 1-260).
T2 construct: whole, on cells
T2 sequence (looked up): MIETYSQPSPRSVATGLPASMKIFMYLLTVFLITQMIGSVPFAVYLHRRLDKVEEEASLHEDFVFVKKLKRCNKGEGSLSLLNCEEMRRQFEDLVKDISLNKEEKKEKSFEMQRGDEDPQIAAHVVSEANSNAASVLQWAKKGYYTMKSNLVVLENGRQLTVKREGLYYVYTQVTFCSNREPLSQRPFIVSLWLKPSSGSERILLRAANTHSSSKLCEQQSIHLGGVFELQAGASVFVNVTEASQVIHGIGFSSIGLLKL
Briefly: FACS on HEK cells transiently transfected with rat CD40L. The procedure: Cross-reactivity to rat CD40L (UniProt accession numbers: Q9Z2V2 and Q9R254 (secondary)) was tested in FACS. Purified Nanobodies were analyzed on FACS for binding to rat CD40L. 2×10⁵ cells (transiently transfected rat CD40L HEK cells) were incubated with the purified Nanobodies in FACS buffer for 30 minutes at 4° C. Cells were washed 3×, re-suspended and incubated for 30 minutes at 4° C. Cells were washed again 3× and dead cells were stained with TOPRO3 (Molecular probes, T3605). Samples were analyzed on a FACSarray™ (BD Biosciences).

Assay [5] has as its target T3, recombinant human CD40L (human, UniProt P29965 108-261, limits assumed).
T3 construct: Bought soluble recombinant protein (R&D, HEK, 6420-CL/CF); also called hCD40L; human CD40L (HEK, R&D)
T3 sequence: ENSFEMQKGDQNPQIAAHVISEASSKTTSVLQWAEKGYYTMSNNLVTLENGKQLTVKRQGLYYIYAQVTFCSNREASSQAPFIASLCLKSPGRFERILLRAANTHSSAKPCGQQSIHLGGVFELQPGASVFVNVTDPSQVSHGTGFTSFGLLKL
Briefly: FACS ligand competition, biotinylated human CD40L on cyno CD40 HEK cells. The method, then:
Cross-reactivity to cynomolgus CD40L (UniProt accession number: G7PG38) and rhesus CD40L (UniProt accession number: G7N4M5) was tested in a ligand competition assay. […] 2×10⁵ cells (transiently transfected HEK cells) were incubated with dilution series of the purified Nanobodies in FACS buffer for 30 minutes at 4° C. Cells were then washed 3× and finally resuspended in FACS buffer containing Streptavidin-PE (BD Pharmingen, #554061). This mixture was incubated for 30 minutes at 4° C. Cells were further handled as set out above.

Assay [6] addresses T3, recombinant human CD40L. The assay is described as follows: FACS ligand competition, biotinylated human CD40L on human CD40 HEK cells.
The target in assay [7] is T3, recombinant human CD40L. The assay is described as follows: FACS ligand competition, biotinylated human CD40L on rhesus CD40 HEK cells.
Assay [8] has as its target human TNFα (human, UniProt P01375 77-233). The assay is described as follows: competition ELISA on coated human CD40L, fixed Nanobody, dilution series of competitor. An excerpt: (§1) The Basic Local Alignment Search Tool (BLAST) was used to identify the closest related protein in the human protein database. […] A fixed concentration of Nanobody was used together with a dilution series of competitor (TNFα, HVEM-L (TNF14) and hRANKL (TN F11); CD40L was used as positive control), starting at a 100-fold excess. The Nano bodies were detected with anti-FLAG-HRP (Sigma (A8592)).
(An ELISA detects its analyte on a solid surface through an enzyme-linked reagent.)

Assay [9] addresses HVEM-L (TNF14) (human, UniProt O43557 74-240, limits assumed). Described as above.
Text: as §1

In assay [10] the target is T4, hRANKL (TNF11) (human, UniProt O14788 140-317, limits assumed).
T4 sequence (looked up): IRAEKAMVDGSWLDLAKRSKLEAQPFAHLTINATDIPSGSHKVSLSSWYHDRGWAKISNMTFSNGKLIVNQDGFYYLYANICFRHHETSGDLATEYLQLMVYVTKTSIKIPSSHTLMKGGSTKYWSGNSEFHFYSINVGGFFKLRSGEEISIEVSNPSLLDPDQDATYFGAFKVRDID
Described as above.
Text: as §1

Assay [11] has as its target T5, recombinant mouse CD40L (mouse, UniProt P27548 112-260, limits assumed).
T5 construct: also called mouse CD40L (R&D NSO)
T5 sequence (looked up): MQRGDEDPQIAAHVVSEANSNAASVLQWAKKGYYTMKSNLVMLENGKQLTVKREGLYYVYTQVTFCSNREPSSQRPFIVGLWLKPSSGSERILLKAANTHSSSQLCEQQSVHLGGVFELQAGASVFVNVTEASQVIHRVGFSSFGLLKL
The assay is described as follows: SPR (ProteOn), immobilised recombinant mouse CD40L 3000-4000 RU; member of the lead panel. The procedure:
To assess binding to mouse CD40L (UniProt accession number: P27548), ProteOn GLC Sensor Chips were coated with 3000-4000 RU of recombinant mouse CD40L (R&D NSO) in 10 mM acetate buffer pH5.5. Purified monovalent anti-CD40L Nanobodies in ProteOn running buffer: PBS/Tween (phosphate buffered saline, pH 7.4 with 0.005% Tween 20) were flown over the sensor chips at 100 nM. Processed curves were used for off-rate analysis based on the Langmuir dissociation model.

Assay [12] concerns the target T3, recombinant human CD40L. Briefly: FACS ligand competition, biotinylated human CD40L on human CD40 HEK cells; * suboptimal curve fit.

Sequence of human TNFα (P01375 77-233 limits assumed): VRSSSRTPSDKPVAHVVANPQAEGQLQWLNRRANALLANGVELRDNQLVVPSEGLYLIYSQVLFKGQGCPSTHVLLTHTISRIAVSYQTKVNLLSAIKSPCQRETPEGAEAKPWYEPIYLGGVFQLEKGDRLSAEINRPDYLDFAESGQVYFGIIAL
Sequence of HVEM-L (TNF14) (O43557 74-240 limits assumed): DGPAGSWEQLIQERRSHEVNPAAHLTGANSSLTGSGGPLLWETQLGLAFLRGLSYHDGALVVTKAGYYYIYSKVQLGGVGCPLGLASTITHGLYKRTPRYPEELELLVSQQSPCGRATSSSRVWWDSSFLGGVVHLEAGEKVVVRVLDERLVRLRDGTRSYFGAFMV

Turning to CDP7657 (non-pegylated) (Fab), in [1], the IC50 (pM), B-cell activation came to 101 pM and the IC50 (pM), B-cell proliferation is 864 pM.

B1: C0100029C10 (VHH)
VHH: EVQLVESGGGLVQPGGSLRLSCAASGFTLDYYALGWFRQAPGKEREGVSCISSTESSDGSTYYADSVKGRFTISRDSAKNTVYLQMNSLKPEDTAVYYCATDQTLFGVCRGIATPDPGFWGQGTLVTVSS
notes: Monovalent Nanobody; tag of the monovalent form not spelled out; also called C01000029C10
Turning to B1, the “IC50 (M), B-cell proliferation assay, +HSA” value in [2] is 1.06e-09 M. Besides, the “Average IC50 (M), B-cell proliferation assay” value in assay [3] stood at 1.26e-09 M. Further, the binding result in [4] was “no binding”; in assay [8], “no binding (tested: competitor from a 100-fold excess)”; in [9], “no binding (tested: competitor from a 100-fold excess)”; in assay [10], “no binding (tested: competitor from a 100-fold excess)”; in [11], “no binding (tested: 100 nM)”. In addition, the “% block (maximum observed effect)” value is 81% in [5], 98% in assay [6] and 87% in assay [7]. Moreover, the IC50 in assay [5] worked out at 8.07 nM; in assay [7] it was 12.4 nM; in [12], 0.142 nM.

B2: C0100028B02 (VHH)
VHH: EVQLVESGGGLVQPGGSLRLSCAASGFTLEYYAIGWFRQAPGKEREGVSCISSEGSTSYTDSVKGRFTISRDNAKNTVYLQMNSLKPEDTAVYYCATDPDRGFLGSSCDTQSHQYDYWGQGTLVTVSS
notes: Monovalent Nanobody produced in P. pastoris (pAX205); Detected with anti-FLAG reagents, but the tag of the monovalent form is not spelled out; also called C01000028B02
Consider B2, for which, in [2], the “IC50 (M), B-cell proliferation assay, +HSA” value was determined as 2.81e-09 M. In addition, the “Average IC50 (M), B-cell proliferation assay” value in assay [3] was found to be 1.15e-09 M. In addition, the binding result in assay [4] is recorded as “no binding”; in [8], “no binding (tested: competitor from a 100-fold excess)”; in assay [9], “no binding (tested: competitor from a 100-fold excess)”; in [10], “no binding (tested: competitor from a 100-fold excess)”; in assay [11], “no binding (tested: 100 nM)”. Further, the “% block (maximum observed effect)” value in assay [5] was 75%; in [6], 71%; in assay [7], 72%. Also, the IC50 in assay [5] worked out at 4.7 nM; in assay [6], 4.43 nM; in assay [7] it was 4.55 nM.
